Experiment: soluble on expression in E. coli; label from the status in PepcDB or PDB records

| Sequence | soluble on expression in E. coli |
| --- | --- |
| MSLLDIERVREQQRPLPISKIRAQQSHTSFQGVFEEIAGHKSEKTVYAILETLEKDGERLAKHRTAAELHAFKRSVRQCVSHLLESLKVETASSAASGQVRQYKLVKEIDKGLVELTNAVFDQSKSELDLLNKIGELQGLIIQLYLEGHHHHHH | soluble |
| MSLKISHIDLGEHPILLAPMEDVTDPAFRLMCKKFGADMVYTEFVSSDALIRAVSKTAQKLSISDEERPVAIQIYGKDTETMVEAAKIVEQAQPDILDINFGCPVKRVAGKGAGAGMLQNIPKMLEITRAVVDAVKIPVTVKTRLGWDANNKIIVDLAEQLQDCGIAALTIHGRTRAQMYTGEADWTLIGEVKNNQRMHIPIIGNGDVTTPQRCKECFDRYGVDAVMIGRASFGRPWIFKEVKHYLETGEELPPLSFEWCMEVLRQEVIDSVNLLDERRGILHVRRHLAASPLFKGIPNFKETRIAMLRAETKEELFRIFETIPEKVNSLLDEGHHHHHH | soluble |
| GPGSMPRCTTLPLSSFPSLLTFMTVCAASSSPPLPRFRVAHLCRRGKDCLALARSLSLPIVEGAEGGGGRCGCSEWRREGAGERCSVFYLSLPASNFMCINFASPLHLRSPGARHIDVQDVPMERNTLQVVASAVNAEALSGAEDHACHASPVHRVYRLRDACTTLQLILLAYKYRRCSAHSMTVAMFVEACAYDLVQGVRVLESAPLSSSPGHDSSGDAIATLEAPWFYIGSEAGGDVRVYLLLPTYADYFLDYTMHWARVAYSEMARQYVGHSLIAKLQTVGGGWASLHRADKSLACALQLHAVAQAVFDEDVVRKCRLFIGWAHLWNSEPAKALEVFYAELAAARRHGDTIQERRCLHAIQNAEHNPRLAPGGAHTGHYQLVNLWWRALA | soluble |
| MASGRARCTRKLRNWVVEQVESGQFPGVCWDDTAKTMFRIPWKHAGKQDFREDQDAAFFKAWAIFKGKYKEGDTGGPAVWKTRLRCALNKSSEFKEVPERGRMDVAEPYKVYQLLPPGIVSGQPGTQKVPSKRQHSSVSSERKEEEDAMQNCTLSPSVLQDSLNNEEEGASGGAVHSDIGSSSSSSSPEPQEVTDTTEAPFQGDQRSLEFLLPPEPDYSLLLTFIYNGRVVGEAQVQSLDCRLVAEPSGSESSMEQVLFPKPGPLEPTQRLLSQLERGILVASNPRGLFVQRLCPIPISWNAPQAPPGPGPHLLPSNECVELFRTAYFCRDLVRYFQGLGPPPKFQVTLNFWEESHGSSHTPQNLITVKMEQAFARYLLEQTPEQQAAILSLV | soluble |
| MGHHHHHHSHMSTKVPIYLKRGSRKGKKEKLRDLLSSDMISPPLGDFRHTIHIGSGGGSDMFGDISFLQGKFHLLPGTMVEGPEEDGTFDLPFQFTRTATVVGRELPDGPSPLLKNAISLPVIGGPQALTLPTAQAPPKPPRLHLETPQPSPQEGGSVDIWRIPETGSPNSGLTPESGAEEPFLSNASSLLSLHVDLGPSILDDVLQIMDQDLDSMQIPT | not soluble |
| MVAHDETGGLLPIKRTIRVLDVNNQSFREQEEPSNKRVRPLARVTSLANLISPVRNGAVRRFGQTIQSFTLRGDHRSPASAQKFSSRSTVPTPAKRRSSALWSEMLDITMKESLTTREIRRQEAIYEMSRGEQDLIEDLKLARKAYHDPMLKLSIMSEEELTHIFGDLDSYIPLHEDLLTRIGEATKPDGTVEQIGHILVSWLPRLNAYRGYCSNQLAAKALLDQKKQDPRVQDFLQRCLESPFSRKLDLWSFLDIPRSRLVKYPLLLKEILKHTPKEHPDVQLLEDAILIIQGVLSDINLKKGESECQYYIDKLEYLDEKQRDPRIEASKVLLCHGELRSKSGHKLYIFLFQDILVLTRPVTRNERHSYQVYRQPIPVQELVLEDLQDGDVRMGGSFRGAFSNSEKAKNIFRIRFHDPSPAQSHTLQANDVFHKQQWFNCIRAAIAPFQSAGSPPELQGLPELHEECEGNHPSARKLTAQRRASTVSSVTQVEVDENAYRCGSGMQMAEDSKSLKTHQTQPGIRRARDKALSGGKRKETLV | soluble |
| MSLEHQLANVYETKIRRNEHPTIPRPLVTFEPAAIRSKPSSPISELEVFTSEQLIKVTSSIRWKTLSSAVLGAGFKWHQTFVNRHVSKDYYCDDVEREFQTFLSNVGVDGTDALGMMTAAILEDVAITEATYESFKVRVFVTAGISNAVDAAKAHLRKRNEATVGTINTWVFIEGTLPDAAYVQALMTATEAKGRALAEKEILDPVTGTLATGTSTDSVMIASSQTGTYFPYAGTITPLGQAIGKLVYDATIQAVTDNEKRRLEREGHHHHHH | soluble |
| MKTLILFSTRDGQTREIASYLASELKELGIQADVANVHRIEEPQWENYDRVVIGASIRYGHYHSAFQEFVKKHATRLNSMPSAFYSVNLVARKPEKRTPQTNSYARKFLMNSQWRPDRCAVIAGALRYPRYRWYDRFMIKLIMKMSGGETDTRKEVVYTDWEQVANFAREIAHLTDKPTLK | not soluble |
| MPFHYPKLYMDHRGNMSTSSSLTSSTTATSSSSTGGVRKQILTLKPKQPNGYVQHLEIKAKESSQSSVISGGVPVPVTLLELKKKDRSEKNVVTNLKYRKPTANHHLDSVHSSSEHHHHHHLSLSSLTRRPGSPSSSGYETDSLVDQENCDVFSSLFNSSLSYQSALDHHHQFHELDMLHSHPIWSPQLPNNNTSLMMGSNSYYLQ | not soluble |
| MNEPPVSVVLPTYDRPEILRNAVKSVQEQTYRHIELVVVDDHSPTPAADTLSPLSFDELTVEIIRHEENRGANEARNTGIRESTGEYIAFLDDDDDWAPSKIEKQVAVFREASPEVGVVYTGSEYVYDDYVRTVVFSLEGDVTEEMLRGRSLGEFTTLMVRRDVAMAAGLPDTDFPSWQDRDWLLRLSCHCKFKTVPEALTTRRRKTGEDSISDNFEEKRDISYPLFIEKHRDLAAEYGWRCERAFMAATTESLGQEALKNGYYADAKKYFLKALRYHPLDRSRLVYALVAYGGKYTYGAAHTLASLLHRVRTDTIHKLEHHHHHH | not soluble |
| MGSDKIHHHHHHMKLTIAGDSHGKYMVAILEGLPSGIRVDEELIRRDLFRRRNCYGRGKRMKMEEDAFEIVSGLWKGITTGAPVTILIPNRAGNPVKDVRSVPRPGHIDYAAWVKYKLPDLNIYVERSSARWTVALTAAGSLLKSLLKEFGIEVLGFVTRLGNVEARDIPGDFEELKRRRDESVVFCPDPEATKEMVAEIDRAKEEGNTLGGKVKVIARGVPAGIGSYSDLFKKLDSKIGSLFFAIPAVKGVVIGSEEMWYGFDYLDEFELEDGKIKRKTNNLGGIEGGITNGEDVWVNVSVKPIPTTGKPLKSVDLRTMEPAKTPYVRSDVTAVPPASVVCEAALAVVISDALLEHLGDGNIDDLKRRFENENLPRWNDGFWKEHYR | not soluble |
| MKAPFFNAPIFRQLIEFKSSTYTYIIGCHKTGKAVIIDPVVDTVSRDIQIIRDLNLDLIYGLNTHVHADHITGTNSLKTVFPTMKSVLSSKSGGEADKYVSDGEIIEIGGLKLEVRETPGHTNGCLTYVEHSLRSAFTGDALLIRACGRTDFQQGNPASLFDSVHDKIFTLPEDYVVYVGHNYNGVLQTTVWEEKNLNPRLTKSKDQFVEIMKNLKLNYPKQIDKAVPANMVDGKGH | not soluble |
| MGSDKIHHHHHHMGKLLTPDDLPIVRGRVYHLDLAPEELARRVIVVGDPDRVPVLAEELLALREVDRFHRGFRTITGVTAETGQRVSFVTSGIGAPSTEIVLNELAALNEVDFASMTRRERWQPLTLVRLGTSGGLNPVTPVGTLILTDYVVGLDNTALYYDIPLPDEACALLEEKVGSVLTGTELPGARFAGKIAPYAARSDRGLLASLTAAASTLELNWTRGLTISSAGFFAEQGRGVARVGTTQVNLLDAFERLASPWPGLELQNMEMEAGFFLHFLGGMRYRAAVVCVVINQRSSGVFMADYRRQVLDGARLILRAFKEYGDARAKSGALA | not soluble |
| MSLELFKSVKLDKNSGTPLYMQLSDKIAEMIENGILPADLKLPSIRQMSALLNVNSVTIVSCYKHLETKGYVYSRPGSGTYVAVVLPKQSENYSDRNIILDELYQSDDLNLINNGHIKINENTINFASATPKSSLFPVENFKLVLNEVLDRDRGNAFDYQDSQGYYPLRSSVRILLEKRKIACHEENIQIISGAQQGIDIIAKALLRQGDYVITESPTYTGAIAVFKSRGAEIADVPLSCDGPNLNILEYNLKKYKPKLIYTIPSFQNPTGISYSNEKRKEILALAERYDAYIIEDDYVSGLDFENMGFATVKSMDKSDRVIFLKSFSKIFMPGLRLGFMVVPSSLKSYIIEAKHATDISTSGLIQRAFDLYIRKGMWDGHFKLMFNIYKERYYKTIEALERHLPQNVQFHKPGGGLNIWLELPANCFTGSLLKAASAENIVFAPGRIFYSSTPTNLNNIRLSFAAVDADEIERGIEKLSELILRFDRNKSEGHHHHHH | soluble |

Source: the DeepSol protein solubility set
